B1: Suppressor of kinetochore protein 1 (Schizosaccharomyces pombe (strain ATCC 38366 / 972)), Q9Y709 (parent)
chain: MSKIKLISSDNEEFVVDQLIAERSMLIKNMLEDVGEINVPIPLPNVSSNVLRKVLEWCEHHKNDLYSGTEEESDIRLKKSTDIDEWDRKFMAVDQEMLFEIVLASNYLDIKPLLDTGCKTVANMIRGKSPEDIRKTFNIPNDFTPEEEEQIRKENEWAEDR
partner: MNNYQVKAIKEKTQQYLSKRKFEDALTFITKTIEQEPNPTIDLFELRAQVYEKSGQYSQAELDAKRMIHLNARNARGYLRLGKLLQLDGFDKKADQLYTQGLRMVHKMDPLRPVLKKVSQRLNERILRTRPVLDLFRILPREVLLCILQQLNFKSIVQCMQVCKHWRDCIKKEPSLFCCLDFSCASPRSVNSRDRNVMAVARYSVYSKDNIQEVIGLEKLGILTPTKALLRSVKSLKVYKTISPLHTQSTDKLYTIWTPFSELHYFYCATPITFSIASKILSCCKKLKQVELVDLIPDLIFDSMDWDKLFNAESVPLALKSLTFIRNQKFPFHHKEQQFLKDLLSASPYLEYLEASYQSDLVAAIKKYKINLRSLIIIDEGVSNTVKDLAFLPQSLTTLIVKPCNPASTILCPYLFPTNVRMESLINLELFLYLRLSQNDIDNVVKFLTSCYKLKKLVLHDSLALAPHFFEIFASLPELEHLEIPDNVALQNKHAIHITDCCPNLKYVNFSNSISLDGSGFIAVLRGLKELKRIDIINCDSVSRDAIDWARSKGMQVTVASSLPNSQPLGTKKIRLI
B2: Suppressor of kinetochore protein 1 (Schizosaccharomyces pombe (strain ATCC 38366 / 972)), Q9Y709 (parent)
chain: B1 chain
partner: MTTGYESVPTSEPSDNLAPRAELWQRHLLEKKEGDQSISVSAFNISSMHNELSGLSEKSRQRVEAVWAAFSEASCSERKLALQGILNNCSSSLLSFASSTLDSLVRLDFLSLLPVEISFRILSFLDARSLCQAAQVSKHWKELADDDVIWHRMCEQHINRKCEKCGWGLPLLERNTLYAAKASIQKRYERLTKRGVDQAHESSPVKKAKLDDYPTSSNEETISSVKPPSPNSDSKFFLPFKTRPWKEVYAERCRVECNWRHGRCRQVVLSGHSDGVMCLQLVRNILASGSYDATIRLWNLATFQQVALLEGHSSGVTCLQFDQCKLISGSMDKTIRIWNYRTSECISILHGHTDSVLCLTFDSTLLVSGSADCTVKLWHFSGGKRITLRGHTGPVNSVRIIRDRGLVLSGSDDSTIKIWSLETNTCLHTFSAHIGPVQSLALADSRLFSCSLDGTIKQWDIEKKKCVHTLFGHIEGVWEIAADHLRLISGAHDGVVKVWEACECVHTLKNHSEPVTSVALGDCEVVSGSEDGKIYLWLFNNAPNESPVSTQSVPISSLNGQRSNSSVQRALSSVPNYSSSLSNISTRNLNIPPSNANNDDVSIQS
B3: Suppressor of kinetochore protein 1 (Schizosaccharomyces pombe (strain ATCC 38366 / 972)), Q9Y709 (parent)
chain: B1 chain
partner: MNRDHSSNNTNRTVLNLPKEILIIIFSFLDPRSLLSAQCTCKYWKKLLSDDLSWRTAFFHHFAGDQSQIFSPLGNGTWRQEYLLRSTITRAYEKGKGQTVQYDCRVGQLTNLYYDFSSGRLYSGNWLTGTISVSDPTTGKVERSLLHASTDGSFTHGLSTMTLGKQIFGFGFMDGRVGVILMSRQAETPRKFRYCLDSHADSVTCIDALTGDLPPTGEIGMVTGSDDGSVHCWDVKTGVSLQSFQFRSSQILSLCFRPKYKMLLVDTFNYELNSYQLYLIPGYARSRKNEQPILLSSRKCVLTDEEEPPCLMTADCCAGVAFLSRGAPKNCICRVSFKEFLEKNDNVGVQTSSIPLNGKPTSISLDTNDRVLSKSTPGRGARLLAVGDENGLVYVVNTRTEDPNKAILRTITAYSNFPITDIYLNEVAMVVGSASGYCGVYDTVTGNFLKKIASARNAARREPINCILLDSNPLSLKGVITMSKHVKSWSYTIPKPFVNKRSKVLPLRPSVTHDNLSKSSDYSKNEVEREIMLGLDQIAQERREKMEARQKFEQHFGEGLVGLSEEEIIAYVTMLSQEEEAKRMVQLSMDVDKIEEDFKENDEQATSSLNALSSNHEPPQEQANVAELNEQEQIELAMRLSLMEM

Variants of: B1
Conditions: with pof3_schpo pof3, O74991

How did the “effect of a mutation on the interaction” value turn out when I110T was run?
The value was “decreasing interaction”.

Variants of: B2
Conditions: with pof1_schpo pof1, P87053

For I110T, which “effect of a mutation on the interaction” value is on record?
Its value is “decreasing interaction”.

Variants of: B3
Conditions: with pof10_schpo pof10, Q9P7W4

How did the “effect of a mutation on the interaction” value turn out when I110T was run?
The value was “decreasing interaction”.

From IntAct's records for PubMed 15147268
